# Test results: the DeepSol protein solubility set
# Assay: soluble on expression in E. coli; label from the status in PepcDB or PDB records
row,Sequence,soluble on expression in E. coli
1,MDYDVLILGGGIIGCSVAYELSKYNLNIALIEKDFDIADDVSFVNTAIVYDGSECKDNLMSYLENMGNMMLPEITKKLNVPFKRVGHLTIADNDETVRIIEENYKRAKSRGINNIYLIDEKRAREIEPNYKGEIKKAMYSENIAVTSPYDLAIGFAEIAYDNGVSFRLEEIVLDIQSIAKGFKVTTNKNKFTCRFVINTTPGEHYTIDQDKDYEQKNALKTYYLLLNDEIKEKTSNIVVKLKNEEEFIIQKNTVNGDTLIGINSNNSLGFMKSLKIAKEMINSISRKHVKDIFYDNHNQDRLIIDDSRKNKGYIKVMGNHYGEVTIAPAVSKIICDEIIDKLNCSLNKNFVDKRREFYRFRELSNEERNELISLDKRYGKIVCLCNGISEGEIVDCIRRPLGARTVEGVKRRTGATFGTCHGAYCISKIINILARELEKKPTEIVEDSKNSKVLASRIKEFDRVLEHHHHHH,not soluble
2,MRLSFLTLQRRNAVGDALRHKSALRRILKTGRRASGTACDAERRTIVEKLPHDSLEHHHHHH,not soluble
3,MGRHLRLPSGTKLIVARNQGEVNFLKGFRNRYNYAYRKDGKGTFALIKGNPPEEELQLIADIIARYSKNEPAKVGIHLNGKEIELIGNPPSDEFLEQFKIYAKKEVGHGR,not soluble
4,MSLRGLRGRSFTIGVLLIDIRNPFLPEVIAGVNEVLGPSHYQAMIGVSDARVQLETSLIESMIDYKMDGLILVAPRLPSEILATFAVQIPIVAVGYHDASATAFDTVNAE,soluble
5,MGSDKIHHHHHHMAGAFDAGFWLPVLERLPDFRGDCIDMGFYGQPKRPKVPRPLILAHSMGLAWALAHIPRPWAGVFAVNAFPRFTRSPTFVEGVPPRLIERMLARFDETPAQVTADFLTRCGLDNPDTSAIDAAPLKDELAWLARCDERTALRMLPCPVLALAGTSDPIVPQGMSTASFAPDTLTLVDGAGHLLPLTHPDWVAAQIRLFAARLEA,not soluble
6,MGSDKIHHHHHHMSQYSVTSSSVVKEKASELGFHKVGIAAVDSIDATEAQRLQAWIELGYHADMEWMANPKRQDIRLVMPEARSLVCVALNYYTPHQRPEGEEYAKISRYGWGRDYHKVMHKKLKQLSTWLESLDESVRVRYYADTGPVQDKVLAQLAGIGWIAKNGNVITREYGSWVFLGEVLTNLELESDRPHTEHCGSCTRCLQACPTSAITQPFIVDANRCIAYHTIENRDEKLPQTLTSHLQGWVAGCDICQDVCPWNQRFASTTDIPEFQPYPGNIAPKLLELAQISDQEWNKRFPASALRRIKPEMLRRNALANLDASRQIMTPKVIIFDFDGTIADTVDALVSIANRLAVDFGYRHISPEQLSLLKNLTSREIIKYSGVSLFKIPFLVKKVKGELKNKIPELKPIPGIKEALIELQNKGYKLGIITSNSKDNVTQFLTINDLNHLFDFIYSGITIFGKTTIINNVLRQNQLQPQEVIYVGDETRDIEASKKANIQVIAVAWGFNSSEVLAKQNPDYLIQQPSELLEVMNGY,not soluble
7,GPGSMPLMSADGSGELPPVMLHRYPVTLGLPTADPYALAIECMLRIVGAHYKKRDGGLPVTLEVPVDGRNKPAMKRHEGLTSCLQLIESATHQDAEVITSALEPEALCVRLTAEVVLIPAFVYITHSDAGILRNAIQKAVEPKVASMWQRFRGSYSRHVVQQTSFCRSYKNMGEAIENVERCLRAIEAICSINTAGNGMFILGTERPCSADALIYAAASSFFHADFASRQASGDIIAMQQRLREGCPTLLTYVERLRGLYFEDYSAFYHLRAPTCGMEGEATQKAAEETFVRGRWKVLAFTGVFSITYFLVANIDVFSAVLLHYLEDDGEEEFLEDEE,not soluble
8,GRGSEHLTIGFKVENAHDRILKTIKTHKLKNYIKESVNFLNSGLTKTNYLGSSNDNIELVDFQNIMFYGDAEVGDNQQPFTFILDTGSANLWVPSVKCTTAGCLTKHLYDSSKSRTYEKDGTKVEMNYVSGTVSGFFSKDLVTVGNLSLPYKFIEVIDTNGFEPTYTASTFDGILGLGWKDLSIGSVDPIVVELKNQNKIENALFTFYLPVHDKHTGFLTIGGIEERFYEGPLTYEKLNHDLYWQITLDAHVGNIMLEKANCIVDSGTSAITVPTDFLNKMLQNLDVIKVPFLPFYVTLCNNSKLPTFEFTSENGKYTLEPEYYLQHIEDVGPGLCMLNIIGLDFPVPTFILGDPFMRKYFTVFDYDNHSVGIALAKKNL,soluble
9,MSLSSFPDVPGWVKPSVDYLINKNVLSGMPDGTFSPNLEIDRGSSAKVMAKILELPIDQSAKPSFDDSKSHWAAPYIAAIEKAGVIKGDGKGNFNPTGKLTRGAMASMLVHAYKLQEKVTGNPPTVFNDLKDHWSEKYVNILVELGISNGYGDDNWKPDQTITRAETVSLVARTDEGHHHHHH,not soluble
10,MAHHHHHHMTSFKDCLREVREAATEHLEGYRGGDTEKALQHIPREEALTTISLVAIRLLEQELPKRGAGNDASQHELHAQLRACRKALKSHSARSAAGDEGTSDKKRRRTEESTEAPTSSSYRGSATADRSGTSNSIELGQYASSDAFDQNEQKRMKFARLMGGAKVAAQGTGGAGGHSRHNTFAASNAELKRMNANLESQFESAMSHKGKKGLGA,soluble
11,MCVRLENENFKAELSESGAELTSLKSKNTDNEYIWTANSSYWGRHAPILFPIVGKVKDNKYRIADKVYNLSQHGFARDMEFEVEDNASDRAVFKLVWNDETLEKYPYKFELRVIYVLKDSTVDVTYNVKNVDDKDIFFSIGAHPGFNCPVIGKQSENDELQFEDYYIEFEKRETTGVVKLNSSNLLSRNTSPFLYASNILNLSEKLFKQGALILKDLDSTSISLKNDKNTTSVTVSFEGFPYVGLWSKPEGAPFVCIEPWFGHADYEDFNGDFREKEDGLKLEVGKEFECTYSITIGELEHHHHHH,soluble
12,MLTIIKTILDVIVGVKERDYVKNTFNQLLKEKNITNYQYIRTAGNQILIDDRDILYVIHDKGWVSRGYGRITDIELSIDDSVAFQSSLSSATGRAIAGGVLAGGVGAIIGGVTGRKNGKKIVHRITLTISFNTPDRPYARVTFLDNQQGVDIYSDEYKRAEEDALYWSKLISSLMN,not soluble
13,MRERRYSSTSPERLAAALFDVAAESGLEGASVREVAKRAGVSIGAVQHHFSTKDEMFAFALRTLVDKLLARLSEVERGGDPARALFAAMSQLLPLDEARSREAHVMAAFAVRAATSPSLAEIRRKTLFTIRTGLSAVLIGIGTPEAETRAALLLATVDGLALDAIGSPALYPPEYLEHALDIQIGMILQGADVVPSSSIELAS,soluble
14,MSLQTPDTATTAPYLLAGAPTFDLSISQFREDFNSQNPSLPLNEFRAIDSSPDKANLTRAASKINENLYASTALERGTLKIKSIQMTWLPIQGPEQKAAKAKAQEYMAAVIRTLTPLMTKTQSQKKLQSLLTAGKNKRYYTETEGALRYVVADNGEKGLTFAVEPIKLALSESLEGLNKEGHHHHHH,soluble
15,SKSKEPLLNGFFWNRTSIYYNCQVIIEVTEMLHNASLLIDDIEDSSKLRRGFPVAHSIYGIPSVINSANYVYFLGLEKVLMLEHPEAVRVFTRQLLELHRGQGLDIHWRDTYTCPSEAEYRAMVLQKTGGLFGLAVGLMQLFSDWKRDLKPLLDTLGLYFQIRDDYANLNSKQYSANKSFCEDLTEGKFSFPTIHAIWSHPESTQVQNILRRRTENLDIKRYCVDYLEKVGSFAYTRQTLLDLEVEAYRLIKELGGNPELEALVEHLSRMYKEPEGGATVSQSK,soluble
16,MSQYSLQVGLTPEGPCSYLPKQKERLAVVMEQELHTALGYQALIRLGFRRSGETIYKPMCEHCDACKPLRINANQFKPSKSQKRLLNKLSSFRWELKSEMDGNWFDLYERYINTRHKTGSMYPANQKQFFEFSHSHWLTNQFLHIYENETLIAIAVSDVLSDSISAMYTFFEPEHPLSLGTISVLIQLKLCKELSKEWLYPGYQIDDCPAMKYKDQYKPNQKLVNMVWQGLEHHHHHH,soluble
17,SLKNKTLIALLLACSPTLAFAHNLTVGSPVPAVGVEKHGEIVLQDNNINYQKWRSADLLGKVRVIQAIAGRSSSKEMNAPLMAAITAAKFPAESYQTTTIINQDDAIWGTSSFVKSSAQDSKKEFPWSSMVLDEFGLVAQAWQLQAESSAIIVQDKQGNVLFVKEGALNEADIQTVLGLIQQNL,not soluble
18,QSQSNQATPSKVVSGEVNAASFAQFSNAFIDDLWQLSPTWALYSGKHVNDGYLEIPDEAGRVKTLAFVKAQQAKLKQFELKSLTSNETIDYHLIDNLLSSMAWDITRFKSWQWDPSSYNVAGGFAQIINENFAPLDDRLRSVLARMENIPAYYAAARGNISQPTLEHTELAVLQNQGAFSVFSDDLLKQVADSGLSDAEKALFKTRFDIASKAINEHISWLNAQVSQLKKEGARSFRIGEELYEQKFAFDIQAGMTAKQLYQKAMVDKDRVQGEMAKITDKLWPKYFTTPKPSDNKIAIRQLIDKLSTKHVKRDDFVSEVRKQIPELIEFVNQKNIVTLDPKKPLVVRETPEYMRGYAGASISAPGPYDKLGNTYYNVTPLDGMSNESAESYLREYNHWILQILNIHEAIPGHYTQLVYSNESPSLVKSLFGNGAMVEGWAVYTERMMLEEGYGNFEPEMWLMYYKWNLRVICNTILDYSIHVKGMTEEQAIALMMDEAFQQRAEAEGKWRRATLSQVQLTSYYSGYREIYDFREEYKQLKGKDFDLKAFHEKFLSYGSAPVKYIRQLMLE,soluble
19,MANRCRLKPYNRRQNNACSNRTHTLPANGLRNLRLLDLRTKVTELKHIGGQSTAAIADLAGEMRRLAKKSKMLLKGLWPFLSSTISAFKINQSLFKHYYKTVQLLNCKHRKKNY,not soluble
20,DCSPLSLLFGHSDAVVQALYSNNPVLHCLNSALAQTAKALAGTRRDLRVLEVGAGTGATTRHLLPMLEEHLSEYRFTDVSNLFLTQAQEHFAAWPQLTCSMLDVNQPVDFSQHPAQGYDLVVAVNVMHDAAHVTRSLKRLHRLLRSGGHLLLLEATERDSALQLASIGFIEGLSNFEDERSEDDKAMLDLPRWRTAVQASGFSWVMNWPQQADDSM,not soluble
21,MSISTIRRQVKNVAYNFSDAQVKVREATSNDPWGPSTALMSEIADLTHNPMAFTEIMSIVWKRLNDSGKNWRHVYKSLVLLDFLIKCGHEKVAQQCRENVFTIETLKDFQHVEDNRDQGLNIREKAKQITSLLSDDERLKNERTRFILTRNKFKQNNPGPVGAESRRSNRHHVTDASLDPEYEDARPSTATEEEMQLQIALALSREECEKADEMRKSDDARLQMALEESQKLQDADRLATTKQGTVSSGQLTQSALDDLLSLGVGELVSGNNDQPSSSSAWGMNDPWGAPQASASLNTNDQMFANSMSNNDPWATSTVAQPVAATAPNSDPFASWDAPAPAATTPSTMPTSSSFDLLGGDLLSPTNSLSANINTNNSTNGTRKTPENFLGENSNLVNLDNLLGSGTPSTTGGNPFLTGAAPANANPFAAQQRKSPTLNEMRAAQGQAPPIPSMAPRGTLPQANPFANPF,not soluble
22,MGSDKIHHHHHHLSQSTPDLLTKQLRYTDYLRANGIPFMKCVKPTDEALFTTIMDSIGQEWTCCLFHWIDGHHVTANTEQTAARMGQLARQLHDVSLHEQEIQFPFIDHTVTYQRWLGDLQRLSASRMPEPVQNSFQEYLTLAQQHLDTARLPKSSSLQPVISTDLNSLNVLWDSDQHIVGIVDHEHIGATDRVQDLAWLIKWYARTEGIDSHDVSGRLAKSLLTHYNSPTLLVPKEDPRLASLLWLSGCMNLHFVERTKQLAFDAENNPVGYDQFQLHLQTYRLRGERLVGLLT,not soluble
